Columns and labels:
[1] = biological target: (His)Rpo3, N-terminally histidine-tagged wild-type Rpo3 expressed in Methanosarcina acetivorans (Methanosarcina acetivorans) (UniProt P0CG28)
[2] = biological target: (His)Rpo3ΔFeS1 (Methanosarcina acetivorans) (UniProt P0CG28)
[3] = biological target: (His)Rpo3ΔD3 (Methanosarcina acetivorans) (UniProt P0CG28)
[4] = biological target: (His)Rpo3mFeS2 (Methanosarcina acetivorans) (UniProt P0CG28)
[5] = biological target: (His)Rpo3ΔFeS2 (Methanosarcina acetivorans) (UniProt P0CG28); test: pull-down; merodiploid M. acetivorans strains (native Rpo3 also present), tetracycline-induced; (His)Rpo3 variant held on Ni2+-agarose from lysate, anaerobic; eluates normalised to 15 ng (His)Rpo3; western blot for Rpo11, Rpo2′, Rpo1″

In the case of “Rpo1″ (RpoA″), catalytic subunit of Methanosarcina acetivorans RNA polymerase (natural protein)”, the nonspecific transcription (RNAP) activity of the imidazole eluate, gene replacement strain DJL51 (counts per min ng^-1 Rpo3) [1] is reported as 210, the nonspecific transcription (RNAP) activity of the imidazole eluate, gene replacement strain DJL52 (counts per min ng^-1 Rpo3) [2] is reported as 33 and the nonspecific transcription (RNAP) activity of the imidazole eluate, gene replacement strain DJL54 (counts per min ng^-1 Rpo3) [3] is reported as 90. The nonspecific transcription (RNAP) activity of the imidazole eluate, gene replacement strain DJL55 (counts per min ng^-1 Rpo3) [4] was 94.
In the case of “Rpo2′ (RpoB′), catalytic subunit of Methanosarcina acetivorans RNA polymerase (from UniProt Q8TRB6 1-604) (natural protein)”, the percent less in the eluate than with (His)Rpo3 (band intensity) [5] is reported as 50 % less.
